Here are results for two substances from patent US20150274831A1.

Assay in all cases: cell-based or functional assay
For assay [1], the target named is CSF-1R on cynomolgous monocytes (native receptor of CD14-enriched peripheral blood monocytes) (cynomolgous).
In assay [2] the target is human mutant CSF-1R L301S Y969F, full-length, on cells (human) (UniProt P07333).
In assay [3] the target is human wildtype CSF-1R (wt CSF-1R), full-length, on cells (human) (UniProt P07333).

As for “Anti CSF-1R SC 2-4A5 (Santa Cruz Biotechnology, US) (antibody)”, in assay [1], the % inhibition (of survival) = (100% - % survival) (CellTiterGlo; cynomolgous monocytes with 150 ng/ml huCSF-1; 5 µg/ml antibody) amounted to 69% and the % survival (CellTiterGlo; cynomolgous monocytes with 150 ng/ml huCSF-1; 5 µg/ml antibody) amounted to 31%. Besides, in assay [2], the Mutant CSF-1R IC30 [µg/ml] (cell viability, 3D culture, CellTiterGlo) is 2.56 µg/mL and the Mutant CSF-1R IC50 [µg/ml] (cell viability, 3D culture, CellTiterGlo) was determined as 10 µg/mL. In assay [3], the IC50 CSF-1R Phosphorylation amounted to 1.01 µg/mL; the wtCSF-1R IC30 [µg/ml] (cell viability, 3D culture, CellTiterGlo) was 16.6 µg/mL; the wtCSF-1R IC50 [µg/ml] (cell viability, 3D culture, CellTiterGlo) worked out at 10 µg/mL.

As a reminder, the % inhibition is the share of the control response that was lost under treatment. A lower % inhibition goes with little suppression. In assay [2], “goat polyclonal anti-CSF-1R antibody ab10676 (abcam)” returned a % inhibition at 20 µg/ml (mutant CSF-1R cells) of 0% and a Mutant CSF-1R IC30 [µg/ml] (cell viability, 3D culture, CellTiterGlo) greater than 20 µg/mL. Moreover, the wtCSF-1R IC30 [µg/ml] (cell viability, 3D culture, CellTiterGlo) in assay [3] was 14.2 µg/mL.
